Reference: article PMC10164549
Positions count from the first letter of the chain named.

Key:
[1] = target: Salmonella enterica serovar Montevideo DpdB, His6 tag removed (Salmonella enterica subsp. enterica serotype Montevideo); assay: SEC
[2] = target: Salmonella enterica serovar Montevideo DpdB, His6-tagged (Salmonella enterica subsp. enterica serotype Montevideo); assay: SEC-SAXS + SEC-MALS
[3] = target: T1, DpdA D95A (Salmonella enterica subsp. enterica …, UniProt P0DW33 1-416, D95A); assay: SEC-SAXS/MALS
T1 sequence: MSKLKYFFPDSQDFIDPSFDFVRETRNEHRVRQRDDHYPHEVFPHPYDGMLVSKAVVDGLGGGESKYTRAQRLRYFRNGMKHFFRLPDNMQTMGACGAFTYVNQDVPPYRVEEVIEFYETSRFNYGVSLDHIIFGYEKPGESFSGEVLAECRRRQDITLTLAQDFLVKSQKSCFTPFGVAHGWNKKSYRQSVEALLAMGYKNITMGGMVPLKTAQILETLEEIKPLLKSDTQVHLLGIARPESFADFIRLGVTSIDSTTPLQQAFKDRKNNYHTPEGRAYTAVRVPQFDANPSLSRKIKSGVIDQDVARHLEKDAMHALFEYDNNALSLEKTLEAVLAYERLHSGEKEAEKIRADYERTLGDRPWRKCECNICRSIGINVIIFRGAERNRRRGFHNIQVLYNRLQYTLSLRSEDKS

[4] = target: T2, DpdA wild type (Salmonella enterica subsp. enterica …, UniProt P0DW33 1-416); assay: EMSA
T2 sequence: T1 sequence with A95D

[5] = target: T3, DpdA F265A (Salmonella enterica subsp. enterica …, UniProt P0DW33 1-416, F265A); assay: EMSA
T3 sequence: T1 sequence with A95D, F265A

Work on “Salmonella enterica serovar Montevideo DpdB, His6 tag removed (enzyme)” yielded a stoichiometry N [1] of 2.

“Salmonella enterica serovar Montevideo DpdB, His6-tagged (enzyme)” gave a stoichiometry N [2] of 2.

B1: 28 bp DNA duplex (28bpDuplexF/R) (dsDNA)
DNA 1: GGGGTTTTCGCCAGCTGGCGTTTTGGGG
DNA 2: CCCCAAAACGCCAGCTGGCGAAAACCCC
B1: binds [3].

B2: 28 bp DNA duplex spiked with 1% 6-FAM-labeled strand (dsDNA)
DNA 1: GGGGTTTTCGCCAGCTGGCGTTTTGGGG
DNA 2: CCCCAAAACGCCAGCTGGCGAAAACCCC
Work on B2 yielded a Kd [4] of 3.4 ± 0.2 µM and a Kd [5] of 2300 ± 100 nM.
